Consider one molecule from patent US20220332804A1 (CSL INNOVATION, published 2022).

What all share (experiment): SPR, antibody captured, C2 as analyte;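 note: biacore SPR at 37 °C, anti-C2 mAbs captured via goat anti-human IgG on CM5 chips, double-referenced sensorgrams fit to a 1:1 kinetic or steady-state model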
On the technique in general: In SPR one partner is held on a chip, and binding of the other changes the refractive index at the surface.

For one test, the target named is T1, human C2 F270A (human, UniProt P06681 21-752).
T1 sequence: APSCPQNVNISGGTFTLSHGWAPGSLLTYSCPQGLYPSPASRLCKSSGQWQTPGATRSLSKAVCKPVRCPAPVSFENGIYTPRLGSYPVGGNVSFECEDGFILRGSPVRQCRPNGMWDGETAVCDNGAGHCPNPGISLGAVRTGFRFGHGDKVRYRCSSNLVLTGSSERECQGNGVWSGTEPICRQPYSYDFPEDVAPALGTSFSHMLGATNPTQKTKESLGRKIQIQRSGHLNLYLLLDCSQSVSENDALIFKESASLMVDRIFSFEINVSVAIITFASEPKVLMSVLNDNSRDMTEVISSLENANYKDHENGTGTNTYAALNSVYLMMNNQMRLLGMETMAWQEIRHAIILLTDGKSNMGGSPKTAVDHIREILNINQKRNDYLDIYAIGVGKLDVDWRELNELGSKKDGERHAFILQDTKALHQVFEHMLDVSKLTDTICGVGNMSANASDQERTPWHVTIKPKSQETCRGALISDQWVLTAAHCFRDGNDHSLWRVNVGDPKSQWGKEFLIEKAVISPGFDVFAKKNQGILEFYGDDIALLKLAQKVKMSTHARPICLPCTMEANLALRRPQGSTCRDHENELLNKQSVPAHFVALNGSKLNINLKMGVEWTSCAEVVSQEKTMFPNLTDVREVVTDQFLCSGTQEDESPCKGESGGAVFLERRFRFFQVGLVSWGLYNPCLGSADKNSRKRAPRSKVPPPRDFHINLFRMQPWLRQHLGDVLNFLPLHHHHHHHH

The next test deals with T2, human C2 A709S (human, UniProt P06681 21-752).
T2 sequence: T1 sequence with A250F, A689S

The next test concerns the target T3, human C2 A326S (human, UniProt P06681 21-752).
T3 sequence: T1 sequence with A250F, A306S

A further test addresses T4, human C2 K721A (human, UniProt P06681 21-752).
T4 sequence: T1 sequence with A250F, K701A

Changes are numbered by the printed parent chain.

B1: RF16-226 (antibody, human IgG4 S228P, lambda)
heavy: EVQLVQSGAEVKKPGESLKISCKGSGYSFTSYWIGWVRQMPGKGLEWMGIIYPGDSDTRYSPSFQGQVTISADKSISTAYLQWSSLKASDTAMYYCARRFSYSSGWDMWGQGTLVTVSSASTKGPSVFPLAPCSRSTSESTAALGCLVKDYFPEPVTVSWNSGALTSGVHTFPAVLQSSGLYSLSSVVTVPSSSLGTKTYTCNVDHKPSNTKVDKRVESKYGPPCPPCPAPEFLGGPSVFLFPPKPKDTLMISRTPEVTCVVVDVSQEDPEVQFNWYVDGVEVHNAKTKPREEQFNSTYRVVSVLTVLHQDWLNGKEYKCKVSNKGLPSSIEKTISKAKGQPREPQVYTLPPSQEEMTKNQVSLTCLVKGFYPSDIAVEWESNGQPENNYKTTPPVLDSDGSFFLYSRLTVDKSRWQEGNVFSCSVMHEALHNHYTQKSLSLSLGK
light: SYELTQPPSVSVSPGQTARITCSGDALTSKYVAWYQQKSGLAPLLVIYEDTRRPSGIPAKFSGSSSGSVATLTISGAHGDDEADYYCYSTDASGHQRVFGGGTKLTVLSQPKAAPSVTLFPPSSEELQANKATLVCLISDFYPGAVTVAWKADGSPVKAGVETTKPSKQSNNKYAASSYLSLTPEQWKSHRSYSCQVTHEGSTVEKTVAPTECS
notes: pH-dependent anti-C2 antibody from a phage display library; also called WT
The Kd is the free concentration of one partner at which half of the binding sites on the other are occupied at equilibrium, for simple one-to-one binding. Consider B1, for which the Kd with human C2 F270A is 96.8 nM; with human C2 A709S it was 127 nM; in the test with human C2 A326S, 13.2 nM; with human C2 K721A it was 99.9 nM.
